Data on three molecules can be found in patent US20140329228A1 (Ushio Denki Kabushiki Kaisha, priority 2011, published 2014).

What all share (assay type): binding
Assay [1] can be described thus: Fluorescence enhancement of fluoro-labeled Fab complex / scFv with methamphetamine. Particulars: antigen Methamphetamine 100 μg/mL versus absence of antigen.
The nature of assay [2]: Fluorescence enhancement of fluoro-labeled Fab complex / scFv with ketamine. Particulars: antigen Ketamine 100 μg/mL versus absence of antigen.
Assay [3] in a line: Fluorescence enhancement of fluoro-labeled Fab complex with amphetamine. Particulars: antigen Amphetamine 100 μg/mL versus absence of antigen.
Assay [4] in a line: Fluorescence enhancement of fluoro-labeled Fab complex / scFv with cocaine. Particulars: antigen Cocaine 100 μg/mL versus absence of antigen.
Assay [5] is described as follows: Fluorescence enhancement of fluoro-labeled Fab complex / scFv with morphine. Particulars: antigen Morphine 100 μg/mL versus absence of antigen.
The nature of assay [6]: Fluorescence enhancement of fluoro-labeled Fab complex with MDMA. To be noted: antigen MDMA 100 μg/mL versus absence of antigen.
Assay [7] in a line: Fluorescence enhancement of fluoro-labeled Fab complex with MDA. To be noted: antigen MDA 100 μg/mL versus absence of antigen.
Assay [8] can be described thus: Measurement of clenbuterol using fluoro-labeled Fab complex. To be noted: 16 μg/mL Clenbuterol versus absence of antigen; Ex/Em 480/530.
A further assay concerns the target HSA (Homo sapiens, UniProt P02768). In words: Fluorescence emission spectrum measurement, different-color double-label anti-SA Fab complex with HSA. To be noted: antigen HSA; ratio to no antigen. From the text:
Similarly, the different-color double-label Fab complex of the anti-SA antibody prepared in Example 1 comprising a polypeptide containing a heavy chain variable region (VH; SEQ ID NO: 12) of an anti-SA antibody labeled with a CR110, TAMRA, or ATTO 655 fluorescent dye and an antibody heavy chain constant domain (CH1; SEQ ID NO: 6), and a polypeptide containing a light chain variable region (VL; SEQ ID NO: 10) of an anti-SA antibody labeled with a dye differing from the above dye and an antibody light chain constant domain (Cκ; SEQ ID NO: 4) was reacted with antigenic HSA (0 to 100 μM), and then fluorescence intensity was measured. The ratio of the fluorescence intensity at each antigen concentration to the fluorescence intensity when no antigen was present was designated as the “fluorescence intensity ratio” and is shown in the graphs of FIG. 10. […]
Moreover, when irradiated with excitation light with a wavelength of 530 nm, fluorescence intensity ratios obtained at a fluorescence wavelength of about 530 nm in the case of CR110_TAMRA was higher than those of no_TAMRA, because of the quenching effect due to the interaction between the fluorescent dyes. […]

B1: Anti-Methamphetamine: same-color double-label Fab complex of anti-methamphetamine antibody; TAMRA-labeled VL (SEQ ID NO: 25) and VH (SEQ ID NO: 26) (antibody, V domains shown)
VH: QVQLQQSGPELVKPGASVKVSCKASGYPSTRFYIYWVKQSHGKSLEWIGNIDPYNGGTTYNQKFKGKATLTIDKSSTTAYVHLNSLTSEDSAVYYCAGFHYSGQLDTDVWGAGTKVTVSS
VL: DIVMTQSPAFMSASPGEKVTLTCSASSSVSSTFLYWYQQKPGSSPKLWIYSTSNLASGVPSRFSGSGSGTSYSLTINSMEAEDAASYFCHQWSNYPFTFGSGTKLEIKR
modifications: Fab; TAMRA labels; Meth-VH-26; Meth-VL-25
On to B1, for which the “Fluorescence enhancement in the presence of 100 μg/mL antigen” value amounted to 7.2 in assay [1]; 1.0 in assay [2]; 6.8 in [3]; 1.0 in assay [4]; 0.9 in [5]; 7.2 in [6]. For the same molecule, the “Fluorescence enhancement in the presence of 100 μg/mL antigen” value in [7] was determined as 5.6.

B2: Anti-Clenbuterol: different-color double-label Fab complex of anti-clenbuterol antibody; CR110-labeled VL (SEQ ID NO: 15)+Cκ, TAMRA-labeled VH (SEQ ID NO: 16)+CH1 (antibody, V domains shown)
VH: QVKLQESGGGLVKPRGSLKLSCAASGFTFSSYDMSWVRQTPEKRLEWVASIRSGGYYTLYPDSVKGRFTISRDNVKNTLYLQMSSLRSEDTAMYYCSRDGNDEYFDVWGAGTTVTVSS
VL: DIELTQSPAILSASPGEKVTMTCSANSSVSYMHWYQQKSRTSPKLWIYDTSKLASGVPGRFSGSGSGNSYSLTISSMEAEDVATYYCFQGSKYPFTFGSGTRLEIKR
modifications: Ckappa and CH1 without entry; CR110, TAMRA labels; Clen-VH-16; Clen-VL-15
In the case of B2, in [8], the Fluorescence enhancement is 1.5.

B3: CR110_TAMRA: different-color double-label Fab complex of anti-SA antibody; CR110-labeled VH (SEQ ID NO: 12)+CH1, TAMRA-labeled VL (SEQ ID NO: 10)+Cκ (antibody, V domains shown)
VH: EVQLLESGGGLVQPGGSLRLSCAASGFTFSSYAMSWVRQAPGKGLEWVSHISPYGANTRYADSVKGRFTISRDNSKNTLYLQMNSLRAEDTAVYYCAKGLRAFDYWGQGTLVTVSS
VL: DIQMTQSPSSLSASVGDRVTITCRASQSISSYLNWYQQKPGKAPKLLIYRASLLQSGVPSRFSGSGSGTDFTLTISSLQPEDFATYYCQQGRDRPATFGQGTKVEIKR
modifications: CH1 and Ckappa constant domains; CR110 and TAMRA labels; anti-SA antibody VH; anti-SA antibody VL
Consider B3, for which, in the assay with HSA, the maximum fluorescence enhancement came to 75 fold.
